# Source: patent US20170368168A1 (AGENUS, published 2017)
# T1: human TIM-3 expressed on cells (human, UniProt Q8TDQ0 22-301)
# T1 construct: also called T cell immunoglobulin and mucin domain-3; HAVCR2
# T1 sequence: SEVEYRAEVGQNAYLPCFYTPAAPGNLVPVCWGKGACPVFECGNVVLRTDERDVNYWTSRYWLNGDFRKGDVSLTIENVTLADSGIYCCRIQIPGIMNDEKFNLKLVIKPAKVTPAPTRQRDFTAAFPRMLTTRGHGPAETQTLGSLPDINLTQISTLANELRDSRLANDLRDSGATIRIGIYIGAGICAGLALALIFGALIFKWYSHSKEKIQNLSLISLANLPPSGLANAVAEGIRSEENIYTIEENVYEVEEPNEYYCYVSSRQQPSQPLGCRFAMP
# T2: recombinant human TIM-1 His (R&D Systems, Cat#1750-TM) (human, UniProt Q96D42 21-295)
# T2 construct: also called rhTIM-1 His
# T2 sequence (looked up): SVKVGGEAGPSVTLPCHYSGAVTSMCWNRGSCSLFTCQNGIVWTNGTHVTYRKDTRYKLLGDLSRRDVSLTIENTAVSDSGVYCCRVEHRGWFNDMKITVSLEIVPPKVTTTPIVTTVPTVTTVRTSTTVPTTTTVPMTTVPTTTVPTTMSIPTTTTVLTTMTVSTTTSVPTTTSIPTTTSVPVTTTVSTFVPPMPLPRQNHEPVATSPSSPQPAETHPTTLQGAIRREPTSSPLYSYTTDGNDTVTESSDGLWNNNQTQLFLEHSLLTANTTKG
# T3: recombinant human TIM-4 His (R&D, Cat#2929-TM) (human, UniProt Q96H15 25-315)
# T3 construct: also called rhTIM-4 His
# T3 sequence (looked up): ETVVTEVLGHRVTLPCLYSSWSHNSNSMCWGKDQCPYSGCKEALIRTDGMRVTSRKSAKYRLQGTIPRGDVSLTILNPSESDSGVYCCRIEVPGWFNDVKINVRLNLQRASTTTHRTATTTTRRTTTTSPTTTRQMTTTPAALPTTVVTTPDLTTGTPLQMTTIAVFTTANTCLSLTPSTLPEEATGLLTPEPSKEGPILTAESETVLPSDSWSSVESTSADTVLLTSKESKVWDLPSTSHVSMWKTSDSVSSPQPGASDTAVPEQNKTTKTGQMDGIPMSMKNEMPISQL
# T4: recombinant human OX40 His (Sino Biological, #10481-H08H) (human, UniProt P43489 29-216)
# T4 construct: also called rhOX40 His
# T4 sequence (looked up): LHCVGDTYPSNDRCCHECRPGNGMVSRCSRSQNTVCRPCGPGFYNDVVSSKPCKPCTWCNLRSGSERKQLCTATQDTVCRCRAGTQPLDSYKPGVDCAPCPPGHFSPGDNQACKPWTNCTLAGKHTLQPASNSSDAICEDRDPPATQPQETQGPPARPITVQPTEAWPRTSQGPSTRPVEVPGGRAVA
# T5: recombinant mouse TIM-3 Fc (R&D Systems, #1529-TM) (mouse, UniProt Q8VIM0 20-191)
# T5 construct: also called rmTIM-3 Fc; not shown: Fc part
# T5 sequence (looked up): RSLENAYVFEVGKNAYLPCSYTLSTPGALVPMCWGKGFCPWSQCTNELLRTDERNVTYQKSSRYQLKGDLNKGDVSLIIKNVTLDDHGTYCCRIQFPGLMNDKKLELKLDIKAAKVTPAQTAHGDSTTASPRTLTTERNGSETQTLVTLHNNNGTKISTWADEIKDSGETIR
# T6: recombinant human DR3 Fc (R&D Systems, #943-D3) (human, UniProt Q93038 25-201)
# T6 construct: also called rhDR3 Fc; not shown: Fc part
# T6 sequence (looked up): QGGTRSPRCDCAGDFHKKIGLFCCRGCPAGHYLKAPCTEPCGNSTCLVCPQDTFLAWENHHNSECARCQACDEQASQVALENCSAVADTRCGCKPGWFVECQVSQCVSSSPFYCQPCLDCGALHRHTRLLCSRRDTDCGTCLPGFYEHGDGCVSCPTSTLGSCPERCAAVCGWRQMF
# T7: recombinant human GITR Fc (R&D Systems, #689-GR) (human, UniProt Q9Y5U5 26-161)
# T7 construct: also called rhGITR Fc; not shown: Fc part
# T7 sequence (looked up): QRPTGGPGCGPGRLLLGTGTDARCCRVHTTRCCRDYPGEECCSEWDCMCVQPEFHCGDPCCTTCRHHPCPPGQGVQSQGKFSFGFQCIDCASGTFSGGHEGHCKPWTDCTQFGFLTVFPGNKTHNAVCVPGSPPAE
# B1: pab2088 (IgG1) (antibody, V domains shown)
# VH: not shown
# VL: DIQMTQSPSSLSASVGDRVTITCRASQGISNYLAWYQQKPGKVPKLLIYAASTLQSGVPSRFSGSGSGTDFTLTISRLEPEDFAVYYCQQYGSSPLTFGGGTKVEIK
# B2: pab2183 (IgG1) (antibody, V domains shown)
# VH: not shown
# VL: EIVLTQSPATLSLSPGERATLSCRASQSVSSYLAWYQQKPGQAPRLLIYGASTRATGIPARFSGSGSGTDFTLTISRLEPEDFAVYYCQQYGSSPLTFGGGTKVEIK
# B3: pab2191 (IgG1 variant) (antibody, V domains shown)
# VH: not shown
# VL: EIVLTQSPGTLSLSPGERATLSCRASQSVSSYLAWYQQKPGQAPRLLIYDASNRATGIPARFSGSGSGTDFTLTISRLEPEDFAVYYCQQYGSSPLTFGGGTKVEIK
# B4: pab2186 (IgG1 variant) (antibody, V domains shown)
# VH: not shown
# VL: EIVLTQSPATLSLSPGERATLSCRASQSVSSYLAWYQQKPGQAPRLLIYDASNRATGIPARFSGSGSGTDFTLTISSLEPEDFAVYYCQQYGSSPLTFGGGTKVEIK
# B5: pab2188 (IgG1) (antibody, V domains shown)
# VH: not shown
# VL: EIVLTQSPATLSLSPGERATLSCRASQSVSSYLAWYQQKPGQAPRLLIYDASNRATGIPASFSGSGSGTDFTLTISRLEPEDFAVYYCQQYGSSPLTFGGGTKVEIK
# B6: pab2190 (IgG1) (antibody, V domains shown)
# VH: not shown
# VL: EIVLTQSPGTLSLSPGERATLSCRASQSVSSYLAWYQQKPGQAPRLLIYDASSRATGIPDRFSGSGSGTDFTLTISRLEPEDFAVYYCQQYGSSPLTFGGGTKVEIK
# B7: pab2189 (IgG1 variant) (antibody, V domains shown)
# VH: not shown
# VL: EIVLTQSPATLSLSPGERATLSCRASQSVSSYLAWYQQKPGQAPRLLIYDASNRATGIPARFSGSGSGTDFTLTISRLEPEDFAVYYCQQYGSSPLTFGGGTKVEIK
# B8: pab2190 (IgG1 variant) (antibody, V domains shown)
# VH: not shown
# VL: EIVLTQSPGTLSLSPGERATLSCRASQSVSSYLAWYQQKPGQAPRLLIYDASSRATGIPDRFSGSGSGTDFTLTISRLEPEDFAVYYCQQYGSSPLTFGGGTKVEIK
# B9: pab2192 (IgG1 variant) (antibody, V domains shown)
# VH: not shown
# VL: EIVLTQSPGTLSLSPGERATLSCRASQSVSSYLAWYQQKPGQAPRLLIYGASSRATGIPARFSGSGSGTDFTLTISRLEPEDFAVYYCQQYGSSPITFGGGTKVEIK
# B10: pab2184 (IgG1 variant) (antibody, V domains shown)
# VH: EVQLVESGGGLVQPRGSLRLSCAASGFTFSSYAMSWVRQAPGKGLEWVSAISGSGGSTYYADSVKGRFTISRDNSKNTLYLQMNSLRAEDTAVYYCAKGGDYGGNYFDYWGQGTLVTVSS
# VL: EIVLTQSPGTLSLSPGERATLSCRASQSVSSYLAWYQQKPGQAPRLLIYGASSRATGIPARFSGSGSGTDFTLTISRLEPEDFAVYYCQQYGSSPITFGGGTKVEIK
# B11: AM-2 (IgG1 N297A) (antibody, V domains shown)
# VH: EVQLVESGGGLVQPGGSLRLSCAASGFTFRQNAWSWVRRAPGKGLEWVSAISGSGGSTYYADSVKGRFTISRDNSKNTLYLQMNSLRAEDTAVYYCAKGGDYGGNYFDYWGQGTLVTVSS
# VL: EIVLTQSPATLSLSPGERATLSCRASQSVSSYLAWYQQKPGQAPRLLIYDASNRATGIPASFSGSGSGTDFTLTISRLEPEDFAVYYCQQYGSSPLTFGGGTKVEIKR
# B12: pab2188w (IgG1 N297A) (antibody, V domains shown)
# VH: not shown
# VL: EIVLTQSPATLSLSPGERATLSCRASQSVSSYLAWYQQKPGQAPRLLIYDASNRATGIPASFSGSGSGTDFTLTISRLEPEDFAVYYCQQYGSSPLTFGGGTKVEIKR
# B13: AM-3 (IgG1 N297A) (antibody, V domains shown)
# VH: EVQLVESGGGLVQPGGSLRLSCAASGFTFMSGQTSWVRRAPGKGLEWVSAISGSGGSTYYADSVKGRFTISRDNSKNTLYLQMNSLRAEDTAVYYCAKGGDYGGNYFDYWGQGTLVTVSS
# VL: EIVLTQSPATLSLSPGERATLSCRASQSVSSYLAWYQQKPGQAPRLLIYDASNRATGIPASFSGSGSGTDFTLTISRLEPEDFAVYYCQQYGSSPLTFGGGTKVEIKR
# B14: AM-6 (IgG1 N297A) (antibody, V domains shown)
# VH: EVQLVESGGGLVQPGGSLRLSCAASGFTFARNAWSWVRRAPGKGLEWVSAISGSGGSTYYADSVKGRFTISRDNSKNTLYLQMNSLRAEDTAVYYCAKGGDYGGNYFDYWGQGTLVTVSS
# VL: EIVLTQSPATLSLSPGERATLSCRASQSVSSYLAWYQQKPGQAPRLLIYDASNRATGIPASFSGSGSGTDFTLTISRLEPEDFAVYYCQQYGSSPLTFGGGTKVEIKR
# Key:
# [1] = biological target: T1, human TIM-3 expressed on cells; test: flow cytometry, 1624-5 cells expressing human TIM-3
# [2] = biological target: T2, recombinant human TIM-1 His (R&D …); test: Luminex suspension array, antigen coupled to beads
# [3] = biological target: T8, recombinant human TIM-3 Fc (R&D Systems, Cat#2365-TM) (human, UniProt P01857-1 100-330 = IgG part); test: Luminex suspension array, antigen coupled to beads
# T8 construct: also called rhTIM-3 Fc; human TIM-3/Fc chimera
# [4] = biological target: T3, recombinant human TIM-4 His (R&D, …); test: Luminex suspension array, antigen coupled to beads
# [5] = biological target: T1, human TIM-3 expressed on cells; test: flow cytometry, anti-CD3/anti-CD28 activated primary human CD8+ T cells
# [6] = biological target: T4, recombinant human OX40 His (Sino …); test: Luminex suspension array, antigen coupled to beads
# [7] = biological target: T5, recombinant mouse TIM-3 Fc (R&D …); test: Luminex suspension array, antigen coupled to beads
# [8] = biological target: T6, recombinant human DR3 Fc (R&D Systems, …); test: Luminex suspension array, antigen coupled to beads
# [9] = biological target: T7, recombinant human GITR Fc (R&D Systems, …); test: Luminex suspension array, antigen coupled to beads
# [10] = biological target: T9, recombinant human CD137 Fc (in house produced material) (human, UniProt Q07011 24-186); test: Luminex suspension array, antigen coupled to beads
# T9 construct: also called rhCD137 Fc; not shown: Fc part
# [11] = biological target: T1, human TIM-3 expressed on cells; test: flow cytometry, Jurkat cells ectopically expressing human TIM-3
# [12] = biological target: T1, human TIM-3 expressed on cells; test: flow cytometry, Jurkat cells ectopically expressing human TIM-3; pab2188w is the weaker comparator
binder,measurement,setting,value
B1,binding result,[1],binds
same,binding result,[2],"no binding (tested: 10 ng/ml, 100 ng/ml, and 1000 ng/ml)"
same,binding result,[3],binds
same,binding result,[4],"no binding (tested: 10 ng/ml, 100 ng/ml, and 1000 ng/ml)"
B2,binding result,[1],binds
B3,binding result,[5],binds
B4,binding result,[5],binds
B5,binding result,[1],binds
B6,binding result,[1],binds
B7,binding result,[5],binds
B8,binding result,[5],binds
B9,binding result,[5],binds
B10,binding result,[5],binds
B11,binding result,[6],no binding (tested: 10000 ng/ml to 0.1 ng/ml)
same,binding result,[7],no binding (tested: 10000 ng/ml to 0.1 ng/ml)
same,binding result,[8],no binding (tested: 10000 ng/ml to 0.1 ng/ml)
same,binding result,[2],no binding (tested: 10000 ng/ml to 0.1 ng/ml)
same,binding result,[4],no binding (tested: 10000 ng/ml to 0.1 ng/ml)
same,binding result,[9],no binding (tested: 10000 ng/ml to 0.1 ng/ml)
same,binding result,[10],no binding (tested: 10000 ng/ml to 0.1 ng/ml)
same,binding result,[11],binds
B12,binding result,[6],no binding (tested: 10000 ng/ml to 0.1 ng/ml)
same,binding result,[7],no binding (tested: 10000 ng/ml to 0.1 ng/ml)
same,binding result,[8],no binding (tested: 10000 ng/ml to 0.1 ng/ml)
same,binding result,[2],no binding (tested: 10000 ng/ml to 0.1 ng/ml)
same,binding result,[4],no binding (tested: 10000 ng/ml to 0.1 ng/ml)
same,binding result,[9],no binding (tested: 10000 ng/ml to 0.1 ng/ml)
same,binding result,[10],no binding (tested: 10000 ng/ml to 0.1 ng/ml)
same,binding result,[12],binds
B13,binding result,[11],binds
B14,binding result,[6],no binding (tested: 10000 ng/ml to 0.1 ng/ml)
same,binding result,[7],no binding (tested: 10000 ng/ml to 0.1 ng/ml)
same,binding result,[8],no binding (tested: 10000 ng/ml to 0.1 ng/ml)
same,binding result,[2],no binding (tested: 10000 ng/ml to 0.1 ng/ml)
same,binding result,[4],no binding (tested: 10000 ng/ml to 0.1 ng/ml)
same,binding result,[9],no binding (tested: 10000 ng/ml to 0.1 ng/ml)
same,binding result,[10],no binding (tested: 10000 ng/ml to 0.1 ng/ml)
same,binding result,[11],binds
